According to paper PMC5409509:

Molecular target: Yeast wild-type Mlh1-Mlh3 (yeast (S. cerevisiae)) (UniProt P38920)

endonuclease activity on circular dsDNA: ratio of Mlh1-Mlh3 to 2.7 kb plasmid at the optimum of activity (Mlh1-Mlh3 per 2.7 kb plasmid): 100
B1: Yeast wild-type Mlh1-Mlh3 (complex)
chain 1: MSLRIKALDASVVNKIAAGEIIISPVNALKEMMENSIDANATMIDILVKEGGIKVLQITDNGSGINKADLPILCERFTTSKLQKFEDLSQIQTYGFRGEALASISHVARVTVTTKVKEDRCAWRVSYAEGKMLESPKPVAGKDGTTILVEDLFFNIPSRLRALRSHNDEYSKILDVVGRYAIHSKDIGFSCKKFGDSNYSLSVKPSYTVQDRIRTVFNKSVASNLITFHISKVEDLNLESVDGKVCNLNFISKKSISPIFFINNRLVTCDLLRRALNSVYSNYLPKGNRPFIYLGIVIDPAAVDVNVHPTKREVRFLSQDEIIEKIANQLHAELSAIDTSRTFKASSISTNKPESLIPFNDTIESDRNRKSLRQAQVVENSYTTANSQLRKAKRQENKLVRIDASQAKITSFLSSSQQFNFEGSSTKRQLSEPKVTNVSHSQEAEKLTLNESEQPRDANTINDNDLKDQPKKKQKLGDYKVPSIADDEKNALPISKDGYIRVPKERVNVNLTSIKKLREKVDDSIHRELTDIFANLNYVGVVDEERRLAAIQHDLKLFLIDYGSVCYELFYQIGLTDFANFGKINLQSTNVSDDIVLYNLLSEFDELNDDASKEKIISKIWDMSSMLNEYYSIELVNDGLDNDLKSVKLKSLPLLLKGYIPSLVKLPFFIYRLGKEVDWEDEQECLDGILREIALLYIPDMVPKVDTSDASLSEDEKAQFINRKEHISSLLEHVLFPCIKRRFLAPRHILKDVVEIANLPDLYKVFERC
chain 2: MSQHIRKLDSDVSERLKSQACTVSLASAVREIVQNSVDAHATTIDVMIDLPNLSFAVYDDGIGLTRSDLNILATQNYTSKIRKMNDLVTMKTYGYRGDALYSISNVSNLFVCSKKKDYNSAWMRKFPSKSVMLSENTILPIDPFWKICPWSRTKSGTVVIVEDMLYNLPVRRRILKEEPPFKTFNTIKADMLQILVMHPMISLNVQYTDKLRINTEVLFRSKNITEGLTKHQQMSQVLRNVFGAIIPPDMLKKVSLKFNEYQIEGIISKMPVGLKDLQFIYINGRRYADSAFQGYVDSLFQAQDFGEKGMSLLKTKSVGKPYRSHPVFILDVRCPQTIDDLLQDPAKKIVKPSHIRTIEPLIVKTIRSFLTFQGYLTPDKSDSSFEIVNCSQKTATLPDSRIQISKRNQVLNSKMKIARINSYIGKPAVNGCRINNSTINYEKIKNIRIDGQKSRLRNKLSSRPYDSGFTEDYDSIGKTITDFSISRSVLAKYEVINQVDKKFILIRCLDQSIHNCPLLVLVDQHACDERIRLEELFYSLLTEVVTGTFVARDLKDCCIEVDRTEADLFKHYQSEFKKWGIGYETIEGTMETSLLEIKTLPEMLTSKYNGDKDYLKMVLLQHAHDLKDFKKLPMDLSHFENYTSVDKLYWWKYSSCVPTVFHEILNSKACRSAVMFGDELTRQECIILISKLSRCHNPFECAHGRPSMVPIAELK
